Patent publication US20160024487

Assays:
[1] = target: T1, Lys(Dnp)-ATNATAVPRIVGG-Lys(Abz)
T1 chain: KATNATAVPRIVGGK

[2] = target: T2, Lys(Dnp)-ATNATMRPRIVGG-Lys(Abz)
T2 chain: KATNATMRPRIVGGK

[3] = target: T3, Lys(Dnp)-ATNATWAPRIVGG-Lys(Abz)
T3 chain: KATNATWAPRIVGGK

[4] = target: T4, Lys(Dnp)-ATNATWRPRIVGG-Lys(Abz)
T4 chain: KATNATWRPRIVGGK

[5] = target: T5, Lys(Dnp)-ATNATPQPRIVGG-Lys(Abz)
T5 chain: KATNATPQPRIVGGK

[6] = target: T6, Lys(Dnp)-ATNATWKPRIVGG-Lys(Abz)
T6 chain: KATNATWKPRIVGGK

[7] = target: T7, Lys(Dnp)-ATNATVFPRIVGG-Lys(Abz)
T7 chain: KATNATVFPRIVGGK

[8] = target: T8, Lys(Dnp)-ATNATWGPRIVGG-Lys(Abz)
T8 chain: KATNATWGPRIVGGK

[9] = target: T9, Lys(Dnp)-ATNATPFPRIVGG-Lys(Abz)
T9 chain: KATNATPFPRIVGGK

[10] = target: T10, Lys(Dnp)-ATNATVSPRIVGG-Lys(Abz)
T10 chain: KATNATVSPRIVGGK

[11] = target: T11, Lys(Dnp)-ATNATMKPRIVGG-Lys(Abz)
T11 chain: KATNATMKPRIVGGK

[12] = target: T12, Lys(Dnp)-ATNATYKPRIVGG-Lys(Abz)
T12 chain: KATNATYKPRIVGGK

[13] = target: T13, Lys(Dnp)-ATNATLRPRIVGG-Lys(Abz)
T13 chain: KATNATLRPRIVGGK

[14] = target: T14, Lys(Dnp)-ATNATLSPRIVGG-Lys(Abz)
T14 chain: KATNATLSPRIVGGK

[15] = target: T15, Lys(Dnp)-ATNATHPPRIVGG-Lys(Abz)
T15 chain: KATNATHPPRIVGGK

[16] = target: T16, Lys(Dnp)-ATNATRKPRIVGG-Lys(Abz)
T16 chain: KATNATRKPRIVGGK

[17] = target: T17, Lys(Dnp)-ATNATHVPRIVGG-Lys(Abz)
T17 chain: KATNATHVPRIVGGK

[18] = target: T18, Lys(Dnp)-ATNATHHPRIVGG-Lys(Abz)
T18 chain: KATNATHHPRIVGGK

[19] = target: T19, Lys(Dnp)-ATNATKNPRIVGG-Lys(Abz)
T19 chain: KATNATKNPRIVGGK

[20] = target: T20, Lys(Dnp)-ATNATTLPRIVGG-Lys(Abz)
T20 chain: KATNATTLPRIVGGK

[21] = target: T21, Lys(Dnp)-ATNATGWPRIVGG-Lys(Abz)
T21 chain: KATNATGWPRIVGGK

[22] = target: T22, Lys(Dnp)-ATNATALPRIVGG-Lys(Abz)
T22 chain: KATNATALPRIVGGK

[23] = target: T23, Lys(Dnp)-ATNATKEPRIVGG-Lys(Abz)
T23 chain: KATNATKEPRIVGGK

[24] = target: T24, Lys(Dnp)-ATNATILPRIVGG-Lys(Abz)
T24 chain: KATNATILPRIVGGK

[25] = target: T25, Lys(Dnp)-ATNATWMPRIVGG-Lys(Abz)
T25 chain: KATNATWMPRIVGGK

[26] = target: T26, Lys(Dnp)-ATNATAHPRIVGG-Lys(Abz)
T26 chain: KATNATAHPRIVGGK

[27] = target: T27, Lys(Dnp)-ATNATVEPRIVGG-Lys(Abz)
T27 chain: KATNATVEPRIVGGK

[28] = target: T28, Lys(Dnp)-ATNATMAPRIVGG-Lys(Abz)
T28 chain: KATNATMAPRIVGGK

[29] = target: T29, Lys(Dnp)-ATNATTHPRIVGG-Lys(Abz)
T29 chain: KATNATTHPRIVGGK

[30] = target: T30, Lys(Dnp)-ATNATQIPRIVGG-Lys(Abz)
T30 chain: KATNATQIPRIVGGK

[31] = target: T31, Lys(Dnp)-ATNATRSPRIVGG-Lys(Abz)
T31 chain: KATNATRSPRIVGGK

[32] = target: T32, Lys(Dnp)-ATNATVNPRIVGG-Lys(Abz)
T32 chain: KATNATVNPRIVGGK

[33] = target: T33, Lys(Dnp)-ATNATTPPRIVGG-Lys(Abz)
T33 chain: KATNATTPPRIVGGK

[34] = target: T34, Lys(Dnp)-ATNATIEPRIVGG-Lys(Abz)
T34 chain: KATNATIEPRIVGGK

[35] = target: T35, Lys(Dnp)-ATNATNAPRIVGG-Lys(Abz)
T35 chain: KATNATNAPRIVGGK

[36] = target: T36, Lys(Dnp)-ATNATEQPRIVGG-Lys(Abz)
T36 chain: KATNATEQPRIVGGK

[37] = target: T37, Lys(Dnp)-ATNATKRPRIVGG-Lys(Abz)
T37 chain: KATNATKRPRIVGGK

[38] = target: T38, Lys(Dnp)-ATNATAQPRIVGG-Lys(Abz)
T38 chain: KATNATAQPRIVGGK

[39] = target: T39, Lys(Dnp)-ATNATSEPRIVGG-Lys(Abz)
T39 chain: KATNATSEPRIVGGK

[40] = target: T40, Lys(Dnp)-ATNATTTPRIVGG-Lys(Abz)
T40 chain: KATNATTTPRIVGGK

[41] = target: T41, Lys(Dnp)-ATNATQRPRIVGG-Lys(Abz)
T41 chain: KATNATQRPRIVGGK

B1: Human plasma purified Factor Xa (protein)
chain 1: ANSFLEEMKKGHLERECMEETCSYEEAREVFEDSDKTNEFWNKYKDGDQCETSPCQNQGKCKDGLGEYTCTCLEGFEGKNCELFTRKLCSLDNGDCDQFCHEEQNSVVCSCARGYTLADNGKACIPTGPYPCGKQTLER
chain 2: IVGGQECKDGECPWQALLINEENEGFCGGTILSEFYILTAAHCLYQAKRFKVRVGDRNTEQEEGGEAVHEVEVVIKHNRFTKETYDFDIAVLRLKTPITFRMNVAPACLPERDWAESTLMTQKTGIVSGFGRTHEKGRQSTRLKMLEVPYVDRNSCKLSSSFIITQNMFCAGYDTKQEDACQGDSGGPHVTRFKDTYFVTGIVSWGEGCARKGKYGIYTKVTAFLKWIDRSMKTRGLPKAKSHAPEVITSSPLK
- FXa kcat/KM [1]: 42 M⁻¹ s⁻¹
- FXa kcat/KM [2]: 490 M⁻¹ s⁻¹
- FXa kcat/KM [3]: 42 M⁻¹ s⁻¹
- FXa kcat/KM [4]: 800 M⁻¹ s⁻¹
- FXa kcat/KM [5]: 1100 M⁻¹ s⁻¹
- FXa kcat/KM [6]: 41 M⁻¹ s⁻¹
- FXa kcat/KM [7]: 54 M⁻¹ s⁻¹
- FXa kcat/KM [8]: 61 M⁻¹ s⁻¹
- FXa kcat/KM [9]: 69 M⁻¹ s⁻¹
- FXa kcat/KM [10]: 88 M⁻¹ s⁻¹
- FXa kcat/KM [11]: 72 M⁻¹ s⁻¹
- FXa kcat/KM [12]: 25 M⁻¹ s⁻¹
- FXa kcat/KM [13]: 610 M⁻¹ s⁻¹
- FXa kcat/KM [14]: 690 M⁻¹ s⁻¹

B2: Human plasma purified Factor Xa (Molecular Innovations, Inc) (protein)
chain 1: B1 chain 1
chain 2: B1 chain 2
- FXa kcat/KM [15]: 7 M⁻¹ s⁻¹
- FXa kcat/KM [16]: 640 M⁻¹ s⁻¹
- FXa kcat/KM [17]: 39 M⁻¹ s⁻¹
- FXa kcat/KM [18]: 25 M⁻¹ s⁻¹
- FXa kcat/KM [19]: 64 M⁻¹ s⁻¹
- FXa kcat/KM [20]: 140 M⁻¹ s⁻¹
- FXa kcat/KM [21]: 82 M⁻¹ s⁻¹
- FXa kcat/KM [22]: 300 M⁻¹ s⁻¹
- FXa kcat/KM [23]: 62 M⁻¹ s⁻¹
- FXa kcat/KM [24]: 700 M⁻¹ s⁻¹
- FXa kcat/KM [25]: 200 M⁻¹ s⁻¹
- FXa kcat/KM [26]: 140 M⁻¹ s⁻¹
- FXa kcat/KM [27]: 110 M⁻¹ s⁻¹
- FXa kcat/KM [28]: 360 M⁻¹ s⁻¹
- FXa kcat/KM [29]: 14 M⁻¹ s⁻¹
- FXa kcat/KM [30]: 630 M⁻¹ s⁻¹
- FXa kcat/KM [31]: 2700 M⁻¹ s⁻¹
- FXa kcat/KM [32]: 70 M⁻¹ s⁻¹
- FXa kcat/KM [33]: 72 M⁻¹ s⁻¹
- FXa kcat/KM [34]: 1300 M⁻¹ s⁻¹
- FXa kcat/KM [35]: 17 M⁻¹ s⁻¹
- FXa kcat/KM [36]: 11 M⁻¹ s⁻¹
- FXa kcat/KM [37]: 91 M⁻¹ s⁻¹
- FXa kcat/KM [38]: 460 M⁻¹ s⁻¹
- FXa kcat/KM [39]: 22 M⁻¹ s⁻¹
- FXa kcat/KM [40]: 17 M⁻¹ s⁻¹
- FXa kcat/KM [41]: 660 M⁻¹ s⁻¹
